Source: PMC12273918 (2025)

What was measured:
[1] = molecular target: CD163 42-1045 (Homo sapiens, UniProt Q86VB7); test: SPR
[2] = molecular target: T1, CD163 D1-D5 (Homo sapiens, UniProt Q86VB7); test: SPR
T1 chain: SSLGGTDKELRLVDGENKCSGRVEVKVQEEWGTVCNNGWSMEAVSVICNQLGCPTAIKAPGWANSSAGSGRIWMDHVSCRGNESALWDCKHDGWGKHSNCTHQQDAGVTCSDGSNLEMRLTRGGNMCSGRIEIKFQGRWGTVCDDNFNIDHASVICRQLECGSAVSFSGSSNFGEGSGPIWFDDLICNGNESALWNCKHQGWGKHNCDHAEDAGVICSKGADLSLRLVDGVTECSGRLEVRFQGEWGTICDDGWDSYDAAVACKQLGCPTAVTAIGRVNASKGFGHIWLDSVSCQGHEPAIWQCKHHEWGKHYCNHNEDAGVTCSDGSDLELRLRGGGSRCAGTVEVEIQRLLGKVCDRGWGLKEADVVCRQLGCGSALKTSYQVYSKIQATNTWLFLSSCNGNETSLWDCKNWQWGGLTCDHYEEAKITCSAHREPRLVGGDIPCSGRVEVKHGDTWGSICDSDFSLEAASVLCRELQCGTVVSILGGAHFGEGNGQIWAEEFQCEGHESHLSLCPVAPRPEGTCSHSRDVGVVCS

- Kd [1]: ~72 nM
- Kd [2]: ~684 nM
B1: Haptoglobin(1-1)-hemoglobin complex (protein)
chain 1: VDSGNDVTDIADDGCPKPPEIAHGYVEHSVRYQCKNYYKLRTEGDGVYTLNDKKQWINKAVGDKLPECEADDGCPKPPEIAHGYVEHSVRYQCKNYYKLRTEGDGVYTLNNEKQWINKAVGDKLPECEAVCGKPKNPANPVQRILGGHLDAKGSFPWQAKMVSHHNLTTGATLINEQWLLTTAKNLFLNHSENATAKDIAPTLTLYVGKKQLVEIEKVVLHPNYSQVDIGLIKLKQKVSVNERVMPICLPSKDYAEVGRVGYVSGWGRNANFKFTDHLKYVMLPVADQDQCIRHYEGSTVPEKKTPKSPVGVQPILNEHTFCAGMSKYQEDTCYGDAGSAFAVHDLEEDTWYATGILSFDKSCAVAEYGVYVKVTSIQDWVQKTIAEN
chain 2: not shown
chain 3: not shown
modifications: Ca2+ (5 mM CaCl2), biotinylated Hp(1-1) immobilized
